{"source": "paper PMC9255746", "target": "Paracoccidioides americana (Pb03) Cbp1 (Paracoccidioides americana (Pb03))", "test": "crystal structure", "data": [{"substance": "Paracoccidioides americana (Pb03) Cbp1 (natural protein)", "values": [{"measurement": "stoichiometry N", "result": 2}]}]}
